What was measured:
[1] = molecular target: Bovine κ-casein (bovine); experiment: PFG NMR diffusion; κ-casein 20% (w/v) in 100% D2O, 298 K; MODSTE pulse sequence, td 50-800 ms; gel-like network
[2] = molecular target: Bovine κ-casein (bovine); experiment: PFG NMR diffusion; κ-casein 0.1 to 10% (w/v) in 100% D2O, pH 7.0, 298 K; STE and MODSTE pulse sequences, td 50-800 ms; fresh samples; below the threshold of gel formation
[3] = molecular target: Bovine κ-casein labelled with EDANS-C2-maleimide (donor) or DABCYL-C2-maleimide (acceptor) (bovine); experiment: FRET or BRET; as the FRET titration but with 5 mM sodium phosphate buffer added; data not shown
[4] = molecular target: Bovine κ-casein labelled with EDANS-C2-maleimide (donor) or DABCYL-C2-maleimide (acceptor) (bovine); experiment: FRET or BRET; time-resolved FRET titration; donor (EDANS) κ-casein constant at 0.01% (5 μM), acceptor (DABCYL) κ-casein 0.01-0.38% (5-200 μM); in H2O, 293 K; indefinite isodesmic association, adding a monomer to an associate

Row | fold decrease of the equilibrium association constant with 5 mM sodium phosphate buffer against the aqueous solution [3] | Kd [4] | Substance | lifetime of molecules within the gel network (20% solution) [1] | percent of molecules in the gel network (20% solution) [1] | fraction of molecules within the associate, pmin(0) (0.5% solution) [2] | lifetime of molecules within the associate (0.5% solution) [2] | stoichiometry N [2]
1 | – | – | Bovine κ-casein (natural protein) | 0.98 s | 34% | 0.23 | 0.53 s | < 31 molecules
2 | 3 fold | 9.5 µM | Bovine κ-casein labelled with EDANS-C2-maleimide (donor) or DABCYL-C2-maleimide (acceptor) (natural protein) | – | – | – | – | –
